B1: VTI1B (parent)
chain: NKLLLSIIILLELAILGGLVYYKF
B2: TLE6 (parent)
chain: FWHDTLTEQLWRIFAGVHDEKAKP

Variants of: B1
Experiment: protein stability index of a GFP-peptide fusion (GPS, HEK-293T) (PSI 1-6); higher = more stable
Details: c terminus: a fixed tail appended
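Note: lentivirally expressed fusions sorted by FACS into six bins by GFP to DsRed ratio, PSI derived from sequencing read proportions per bin multiplied by bin number.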

Protein stability index, by site and new letter:
G18: D 2.01 | C 3.99 | V 2.56 | L 2.61 | H 2.46 | Q 2.61 | T 2.61 | R 2.65 | I 3.09
I15: V 4.17 | H 2.83 | T 2.54 | W 2.18 | F 2.06 | K 3.29 | N 1.43 | R 2.12 | Q 2.44 | D 3.64 | C 2.38 | M 3.49 | P 3.21 | S 3 | E 2.52 | G 3.52 | L 2.62
V20: R 3.41 | A 2.12 | M 3.01 | T 3.34 | P 2.94 | Y 2.87 | I 2.23 | Q 3.31 | C 1.34 | L 3.59 | F 2.98 | W 2.84 | K 3.48 | N 2.81 | D 3.38 | S 2.32
Y22: I 3.12 | K 1.71 | P 3.8 | A 3.55 | D 2.55 | C 2.53 | Q 3.06 | R 2.92 | M 3.54 | H 3.4 | V 3.2 | W 3.83 | N 2.47 | G 3.7 | E 1.54 | F 2.59 | S 1.56 | T 2.95 | L 3.17
L11: M 3.36 | N 3.97 | R 3.68 | C 2.36 | D 3.12 | F 2.39 | P 2.43 | S 3.88 | W 3.2 | T 2.53 | K 2.59 | Q 3.26 | V 1.49 | E 3.84 | H 4.16 | G 2.94
Y21: V 2.17 | A 1.46 | F 3.24 | T 2.79 | N 2.3 | M 2.58 | D 3.33 | P 2.42 | L 3.39 | R 2.32 | Q 3.37 | W 2.62 | G 3.61 | S 1.66 | K 2.65 | E 2.28 | H 2.32 | I 2.42 | C 3.01

Variants of: B2
Experiment: as above
Details: c terminus: a fixed tail appended

Protein stability index, by site and new letter:
W2: P 2.16 | F 1.9 | Q 2.87 | C 1.66 | L 2.54 | R 2.46 | T 2.35 | E 2.41 | D 2.61 | N 2.1 | H 3 | I 2.26 | V 3.26 | K 2.11 | M 1.42 | A 2 | G 1.69 | S 1.62 | Y 1.85
D4: I 2.06 | F 3.05 | M 2.44 | H 1.8 | C 1.91 | N 1.71 | E 1.99 | Q 2.29 | A 1.49 | K 1.76 | R 1.58 | P 2.31 | L 1.74 | G 2.07
F1: S 1.91 | H 1.96 | D 2.17 | T 2.01 | G 2.32 | A 2.28 | Y 2.05 | N 2.12 | R 2.48 | K 2.44 | M 2.12 | L 1.93 | C 2.42 | V 1.8 | E 1.81 | I 1.95 | Q 2.54 | P 2.18 | W 1.82
H3: T 2.75 | G 1.82 | C 1.95 | F 1.96 | E 2.47 | V 1.65 | P 2.41 | Q 1.69 | S 1.72 | D 2.16 | W 3.07 | K 1.82 | M 2.25 | R 1.88 | A 3.32 | Y 1.91 | I 2.7 | N 2.7 | L 1.9

Reference: the supplement of paper PMC10567573
